Assay results published in patent US20180021429A1, “ANTICANCER AGENTS OR ANTIMETASTATIC AGENTS USING FSTL1 AND COMBINATION DRUG THEREOF” (PHARMA FOODS INTERNATIONAL CO., LTD., priority 2015, published 2018).
“Also recorded” adds a separate entry of the source.

T1: FSTL1 (Homo sapiens, UniProt Q12841)
T1 sequence (Q12841 21-308): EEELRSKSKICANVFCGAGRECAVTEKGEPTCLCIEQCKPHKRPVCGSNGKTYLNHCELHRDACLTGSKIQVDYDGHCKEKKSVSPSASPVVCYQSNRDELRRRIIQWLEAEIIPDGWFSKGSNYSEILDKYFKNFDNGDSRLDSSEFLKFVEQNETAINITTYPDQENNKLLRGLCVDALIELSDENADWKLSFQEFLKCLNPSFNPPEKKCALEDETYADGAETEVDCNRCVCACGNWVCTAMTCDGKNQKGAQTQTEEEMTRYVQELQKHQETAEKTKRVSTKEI


Legend:
FSTL1 = molecular target: T1, FSTL1; experiment: Inhibition of MSC induction by FSTL1 in mouse bone marrow cells, CD45-negative cells (Examples 6, 8, 12); format: cell-based; parameters: purchased R&D Systems, Inc. 1694-FN-050; conditions: antibody 10 μg/mL
Procedure: Mouse bone marrow cells prepared in the same way as in Example 4 were supplemented with 50 ng/mL (final concentration) of FSTL1 and 10 μg/mL of the anti-FSTL1 antibody (#5-2, #5-3, #5-8, #5-10, 45-43, #6-55, or #7-34) or a control antibody anti-DNP antibody and cultured under stimulation. 11 days thereafter, the number of cells was counted while the cells were stained with a PE-Cy5-labeled anti-CD45 antibody (BD Pharmingen/Becton, Dickinson and Company, Cat. No. 555484), and the content of CD45− negative cells reported to generally contain MSCs at a high rate was analyzed by flow cytometry using FACScan to calculate the percentage and number of MSCs per culture (FIG. 67A).
(§1) Mouse bone marrow cells prepared in the same way as in Example 4 were supplemented with 20 ng/mL (final concentration) of FSTL1 and 10 μg/mL of the anti-FSTL1 antibody (#5-2, #5-3, #5-8, #5-10, #5-43, #6-55, #8-1, #8-4, #8-7, and #8-8) or a control antibody anti-DNP antibody and cultured under stimulation. 8 days thereafter, the number of cells was counted while the cells were stained with a PE-Cy5-labeled anti-CD45 antibody, and the content of CD45− negative cells was analyzed by flow cytometry using FACScan to calculate the percentage and number of MSCs per culture (FIG. 68A).
as §1, with “(#5-2,” for “(#5-2, #5-3,”, “#5-8,” for “#5-8, #5-10, #5-43,”, “#6-55, #7-34,” for “#6-55,”, “#8-7, or” for “#8-7, and”, “(FIG. 69).” for “(FIG. 68A).”

[1] = tested on: human pancreatic cancer cell line Panc1; experiment: Inhibitory activity against activation of tumor cell by FSTL1, RANKL-/CCR2-positive cells (Examples 5, 7, 9-11); format: cell-based
Procedure: It is known that tumor cells activated by stimulation with FSTL1 highly express molecule groups promoting bone metastasis and increase metastatic invasive capacity (Cancer Research 73: 6185, 2013). Thus, […] cells/well of a human pancreatic cancer cell line Panc1 were suspended in 1 mL/well of D-MEM medium (GIBCO/Thermo Fisher Scientific Inc. Cat. No. C11885500BT) containing 10% fetal bovine serum, supplemented with 50 ng/mL (final concentration) of FSTL1 (R&D Systems, Inc.) and 10 μg/mL of the anti-FSTL1 antibody (#5-2, #5-8, #5-10, #5-43, #6-55, or #7-34) or its isotype mouse IgG (anti-DNP antibody) as a control antibody “Control”, and cultured under stimulation (6-well plate). 3 days thereafter, the number of cells was counted while the cells were stained with a PE-labeled anti-RANKL antibody (eBioscience Cat. No. 12-6619) and a PE-labeled anti-CCR2 antibody (R&D Systems, Inc. Cat. No. FAB151P) in order to examine the expression of markers indicating bone metastatic properties, and the contents of RANKL-positive cells and CCR2-positive cells were analyzed by flow cytometry using FACScan (Becton, Dickinson and Company) to calculate the numbers of cells per culture. […] Therefore, in Examples below, judgment was made with the number of cells as an index.
In the same way as in Example 5, a human pancreatic cancer cell line Panc1 was supplemented with 50 ng/mL (final concentration) of FSTL1 (R&D Systems, Inc.) and 10 μg/mL of the anti-FSTL1 antibody (the same clones as in Example 6) or a control antibody and cultured under stimulation.
3 days thereafter, the number of cells was counted while the cells were stained with a PE-labeled anti-RANKL antibody and a PE-labeled anti-CCR2 antibody, and the contents of RANKL-positive cells and CCR2-positive cells were analyzed by flow cytometry using FACScan (Becton, Dickinson and Company) to calculate the numbers of cells per culture (FIG. 5B).
(§2) In the same way as in Example 5, a human pancreatic cancer cell line Panc1 was supplemented with 20 ng/mL (final concentration) of FSTL1 and 10 μg/mL of the anti-FSTL1 antibody (#5-2, #5-8, or #6-55) or a control antibody and cultured under stimulation. 3 days thereafter, the number of cells was counted while the cells were stained with a PE-labeled anti-RANKL antibody and a PE-labeled anti-CCR2 antibody, and the contents of RANKL-positive cells and CCR2-positive cells were analyzed by flow cytometry using FACScan (Becton, Dickinson and Company) to calculate the numbers of cells per culture (FIG. 6B).
as §2, with “50” for “20”, “#5-3, #6-55, #7-34, #8-1, #8-4, #8-7,” for “#5-8,”, “#8-8)” for “#6-55)”, “culture.” for “culture (FIG. 6B).”
as §2, with “50” for “20”, “(#6-55)” for “(#5-2, #5-8, or #6-55)”, “culture.” for “culture (FIG. 6B).”
It is known that tumor cells activated by stimulation with FSTL1 highly express molecule groups promoting bone metastasis and increase metastatic invasive capacity (Cancer Research 73: 6185, 2013). […]

[2] = Example 6, FSTL1 50 ng/mL, 11 days
[3] = Example 8, FSTL1 20 ng/mL, 8 days
[4] = Example 12, FSTL1 20 ng/mL, 8 days

Molecule	inhibitory activity against the expansion of CD45-negative cells by FSTL1 (FSTL1; [2])	inhibitory activity against the expansion of CD45-negative cells by FSTL1 (FSTL1; [3])	inhibitory activity against the expansion of CD45-negative cells by FSTL1 (FSTL1; [4])	also measured
#5-43: chicken-mouse chimeric anti-FSTL1 antibody clone; variable regions SEQ ID NO: 779 (light), 781 (heavy) (antibody, V domains shown, mouse constant regions) VH: AVTLDESGGGLQTPGGGLSLVCKGSGFTFSSFNMFWVRQAPGKGLEWVAGIGKDGGTGYGAAVDGRATISKDSGQSTLRLQLNNLRAEDTGTYYCAKAAGGCSYDWCGAYTGDIDTWGHGTEVIVSS VL: ASTQPSSVSANPGEAVKITCSGGSGSYYGWYQQKSPGSAPVTVIYNNNQRPSDIPSRFSGSKSGSTATLTITGVQAEDEAVYFCGGYDSSTGHGGIFGAGTTLTVL	higher inhibitory activity and substantially completely inhibited the action of FSTL1	Inhibitory activity was confirmed; also recorded: exhibited inhibitory activity	–	–
#8-1: chicken-mouse chimeric anti-FSTL1 antibody clone; variable regions SEQ ID NO: 791 (light), 793 (heavy) (antibody, V domains shown, mouse constant regions) VH: AVTLDESGGGLQTPGGALSLVCKGSGFTFSSFNMFWVRQAPGKGLEWVAGIGKDGVPKYGAAVDGRATISKDNGQSTMRLQLNNLRAEDTGTYFCAKAAGGCSYDWCGIYAGDIDTWGHGTEVIVSS VL: ASTQPSSVSANPGEAVKITCSGGSGSYYGWYQQKSPGSAPVTVIYNNNQRPSDIPSRFSGSKSGSTATLTITGVQAEDEAVYFCGGYDSSSGHGGIFGAGTTLTVL	–	Inhibitory activity was confirmed; also recorded: exhibited inhibitory activity	–	–
#5-3: chicken-mouse chimeric anti-FSTL1 antibody clone; variable regions SEQ ID NO: 767 (light), 769 (heavy) (antibody, V domains shown, mouse constant regions) VH: AVTLDESGGGLQTPGGALSLVCKGSGFSFSSFNMFWVRQAPGKGLEWVAGIGKDGVPKYGAAVDGRATISKDNGQSTMRLQLNNLRAEDTGTYFCAKAAGGCSYDWCGIYAGDIDTWGHGTEVIVSS VL: ASTQPSSVSANPGETVKITCSGGSGYYYGWYQQKSPGSVPVTVIYNNNNRPSDIPSRFSGSKSGSTGTLTITGVRAEDEAVYYCGGYDNSGTGIFGAGTTLTVL	higher inhibitory activity and substantially completely inhibited the action of FSTL1	–	–	inhibitory activity against the expansion of RANKL-positive cells and CCR2-positive cells ([1]; Example 7, FIG. 5B/35B, FSTL1 50 ng/mL, antibody 10 μg/mL, 3 days): higher inhibitory activity
#6-55: chicken-mouse chimeric anti-FSTL1 antibody clone; variable regions SEQ ID NO: 783 (light), 785 (heavy) (antibody, V domains shown, mouse constant regions) VH: AVTLDESGGGLQTPGGALSLVCKGSGFTFTSVTMQWVRQAPGKGLEWVASVCSGSSTYYAPAVKGRATISRDNGQSTVRLQLSNLRPEDTGTYYCAKIAGRARWSCTSAAYNIDAWGHGTEVIVSS VL: ASTQPSSVSAIPGETVKITCSGGGNNYGWYQQRSPGSAPVTVIYYNDNRPSNIPSRFSGSTSGSTSTLTITGVQADDEAIYYCGSWDSNTDSGIFGAGTTLTVL	–	Inhibitory activity was confirmed; also recorded: exhibited inhibitory activity	higher inhibitory activity was confirmed in the order of #7-34, #5-2, #6-55, and #8-7	inhibitory activity against the expansion of RANKL-positive cells and CCR2-positive cells ([1]; Example 9, FIG. 6B/36B, FSTL1 20 ng/mL, antibody 10 μg/mL, 3 days): exhibited inhibitory activity against the expansion of RANKL-positive cells and CCR2-positive cells; also recorded: higher inhibitory activity; inhibitory activity against the expansion of RANKL-positive cells and CCR2-positive cells ([1]; Example 10, FIG. 6C/36C, FSTL1 50 ng/mL, antibody 10 μg/mL, 3 days): high inhibitory activity; also recorded: higher inhibitory activity; dose dependence of the antibody ([1]; Example 11, FIG. 6D/36D, 5, 10, 20 μg/mL): the dose dependence of antibody was not confirmed; also recorded: the dose dependence of the antibody was not confirmed; inhibitory activity against the expansion of RANKL-positive cells and CCR2-positive cells ([1]; Example 11, FIG. 6D/36D, FSTL1 50 ng/mL, at all tested doses 5, 10 and 20 μg/mL): ~100%; inhibition of cell induction of RANKL-positive cells and CCR2-positive cells ([1]; Example 11, FIG. 6D/36D, dose dependence test): exhibited inhibitory activity; also recorded: strongly inhibited the cell induction of both RANKL-positive cells and CCR2-positive cells at the same time
#7-34: chicken-mouse chimeric anti-FSTL1 antibody clone; variable regions SEQ ID NO: 787 (light), 789 (heavy) (antibody, V domains shown, mouse constant regions) VH: AVTLDESGGGLQTPGGGLSLVCKASGFTFSSVTMQWVRQAPGKGLEWVASICSGSSTYYGPAVKGRATISRDNGQNTVRLQLNNLRAEDTATYYCAKIVGRGRWSCTSAAYNIDAWGHGTEVIVSS VL: ASTQPSSVSANPGETVKITCSGGGNNYGWYQQKSPGSAPVTVIYYNNNRPSNIPSRFSGSTSGSTSTLTITGVQAEDEAVYYCGSYEGSTDSGIFGAGTTLTVL	higher inhibitory activity and substantially completely inhibited the action of FSTL1	–	stronger inhibitory activity was confirmed in the order of clone #7-34, #5-2, 46-55, and #8-7; also recorded: higher inhibitory activity was confirmed in the order of #7-34, #5-2, #6-55, and #8-7; also recorded: stronger inhibitory activity was confirmed in the order of clone #7-34, #5-2, 96-55, and #8-7	–
